Reference: the supplement of paper PMC10567573

B1: LOXL2 (parent)
chain: HISSCKLGPQVSLDPMKNVTCENG
B2: PLAGL1 (parent)
chain: LELGSTEVLLDHLKAHAEEKPPSG

Variants of: B1
Assay: protein stability index of a GFP-peptide fusion (GPS, HEK-293T) (PSI 1-6); higher = more stable
Conditions: c terminus: a fixed tail appended
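Further: lentivirally expressed fusions sorted by FACS into six bins by GFP to DsRed ratio, PSI derived from sequencing read proportions per bin multiplied by bin number.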

Protein stability index of substitutions, site by site:
P9: F 2.65 | K 4.25 | H 3.73 | I 2.63 | C 3.23 | N 3.71 | E 4.36 | A 3.85 | G 3.51 | D 4.05 | M 2.69 | L 2.84
G8: S 3.66 | H 3.63 | I 3.86 | Q 3.7 | K 3.61 | W 1.87 | M 3.95 | L 4.02 | Y 3.4 | F 3.04 | C 3.15 | P 4.01 | D 4.34 | E 4.53 | R 3.29 | A 3.77 | N 4.07 | T 4.45 | V 3.62
L7: E 4.79 | N 4.37 | P 4.51 | T 4.54 | A 4.62 | C 3.59 | Y 3.74 | M 4.31 | F 4.1 | S 3.96 | G 4.76 | I 4.57 | K 4.33 | V 4.19 | H 4.19 | Q 4.32 | W 2.28 | R 4.15 | D 4.15
I2: R 4.11 | Q 4.25 | P 3.76 | Y 3.61 | M 4.41 | T 4.54 | W 3.31 | F 3.58 | N 3.76 | L 4.24 | H 3.53 | V 4.21 | D 4.58 | S 4.34 | K 3.4 | G 4.53 | E 4.48 | C 3.44 | A 4.35
S3: K 4.01 | T 3.59 | R 3.48 | C 2.78 | P 3.99 | W 3.14 | G 4.2 | E 4.24 | D 4.39 | F 2.94 | L 3.19 | I 3.39 | H 3.51 | Q 3.92 | V 3.12 | Y 2.62 | N 4.24 | M 3.3 | A 3.69
H1: Q 3.95 | P 4.33 | G 4.46 | R 3.95 | V 3.72 | S 4.14 | D 4.33 | F 2.01 | I 2.63 | N 4.52 | T 4.07 | C 3.73 | A 3.87 | L 3.29 | K 4.22 | Y 2.46 | M 3.95 | E 3.96 | W 3.42
K6: P 4.48 | M 4.15 | D 4.9 | C 3.73 | I 3.57 | G 3.97 | R 3.94 | Y 3.44 | L 4.22 | N 4.32 | H 4 | F 2.98 | V 3.95 | T 4.36 | Q 4.04 | A 3.96 | S 4.34 | E 4.35 | W 2.64
C5: G 4.17 | H 4.37 | V 4.31 | W 3 | R 4.1 | Y 4 | K 4.53 | P 4.01 | D 4.77 | A 4.39 | F 3.83 | E 4.95 | M 4.2 | I 3.87 | N 3.29 | Q 4.49 | L 4.32 | S 4.66 | T 4.54
S4: Q 3.69 | E 4.37 | F 3.34 | N 3.47 | G 3.79 | I 3.02 | T 3.65 | V 3.91 | C 3.78 | L 3.6 | A 3.65 | K 3.96 | P 4.22 | W 2.32 | R 3.52 | Y 3.44 | D 3.61 | H 3.98 | M 3.94

Variants of: B2
Assay: as above
Conditions: c terminus: a fixed tail appended

Protein stability index: each site, then its substitutions
A17: P 4.66 | S 4.01 | N 4.7 | K 4.11 | F 2.97 | T 4.16 | M 2.74 | W 3.35 | D 4.66 | E 4.67 | V 3.88 | H 4.13 | I 3.37 | C 3.74 | G 4.35 | Y 3.4 | L 3.21 | R 4.39 | Q 4.65
P21: N 4.85 | W 3.53 | Y 3.39 | D 4.92 | L 3.6 | H 4.57 | V 4.41 | F 3.72 | I 4.22 | M 4.4 | C 3.55 | G 4.45 | R 4.47 | Q 4.84 | A 4.8 | S 4.53 | K 5.04 | E 5.38 | T 4.56
E19: L 2.64 | M 3.41 | F 2.33 | G 2.45 | K 3.55 | N 4.03 | D 4.48 | Q 3.89 | I 3.14 | H 3.61 | V 3.27 | R 3.58 | T 3.55 | Y 3.32 | W 3.23 | S 3.65 | A 3.73 | C 3.12 | P 4.28
H16: T 4.29 | V 4.05 | N 5.11 | Q 4.53 | M 3.29 | C 4.2 | F 3.42 | D 4.25 | Y 3.33 | I 3.93 | G 3.88 | E 4.6 | S 4.58 | P 5.07 | W 3.02 | K 5.08 | R 4.28 | L 4.08
P22: Q 4.85 | I 4.06 | L 3.9 | S 4.79 | T 4.88 | C 4.58 | H 4.03 | A 4.49 | V 3.81 | G 4.4 | F 3.35 | Y 3.9 | D 4.88 | R 4.1 | M 3.85 | K 4.25 | W 3.38 | E 5.08 | N 4.95
S23: W 3.22 | V 4.34 | A 3.76 | D 5.1 | L 4.22 | H 4.17 | G 4.43 | Y 3.79 | M 4.15 | P 4.5 | R 4.4 | T 4.17 | K 4.28 | F 3.72 | I 4.1 | E 4.89 | C 4.35 | N 4.47 | Q 4.71
E18: F 2.08 | Q 3.94 | R 2.15 | L 2.76 | I 2.62 | G 2.66 | N 3.53 | M 2.61 | T 3.59 | W 2.07 | Y 3.25 | P 3.28 | S 3.87 | V 2.71 | K 2.7 | A 3.45 | H 3.27 | D 4.55 | C 3.39
K20: M 4.01 | G 4.22 | W 4.06 | D 4.64 | Y 3.6 | F 2.9 | S 4.21 | R 4.26 | A 4.56 | P 4.88 | L 3.9 | T 4.86 | H 3.59 | I 3.71 | E 5.18 | N 4.58 | V 4.41 | Q 3.56 | C 4
G24: Q 4.63 | W 3.23 | N 4.54 | M 3.61 | K 4.34 | T 4.18 | A 4.66 | H 4.47 | D 4.91 | P 4.9 | F 3.21 | S 4.46 | V 3.88 | Y 3.7 | R 4.21 | L 3.51 | I 4.07 | C 3.97 | E 4.68
